Consider 15 molecules from patent publication US6942981.

Ends that are not written are not given here. * marks the point of attachment. Biotin = O=C1N[C@H]2[C@H](CS[C@H]2CCCCC(=O)*)N1

For experiment [1], the target named is T1, GST-NeDLG PDZ domains 1-2 fusion protein (Mus musculus (Mouse), UniProt P70175 147-332).
T1 construct: also called NeDLG1; not shown: glutathione S-transferase (GST) encoded by pGEX-3X
T1 chain: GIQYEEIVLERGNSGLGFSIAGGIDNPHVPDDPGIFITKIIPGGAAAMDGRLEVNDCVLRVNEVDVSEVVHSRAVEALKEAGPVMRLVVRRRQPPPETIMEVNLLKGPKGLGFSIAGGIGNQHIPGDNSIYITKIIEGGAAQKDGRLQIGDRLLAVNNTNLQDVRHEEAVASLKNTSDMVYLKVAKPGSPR
In words: A assay.

Experiment [2] has as its target T2, GST-LIMK2 PDZ domain fusion protein (human, UniProt P53671 147-237).
T2 construct: also called human LIM domain kinase 2; not shown: glutathione S-transferase (GST) encoded by pGEX-3X
T2 sequence: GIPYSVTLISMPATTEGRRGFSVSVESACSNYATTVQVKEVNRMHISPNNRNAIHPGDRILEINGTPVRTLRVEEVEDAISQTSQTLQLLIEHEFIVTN
In words: A/G assays.

For experiment [3], the target named is T3, GST-MPP2 PDZ domain fusion protein.
T3 construct: also called maguk p55 subfamily member 2 (DLG2); MMP2; not shown: glutathione S-transferase (GST) encoded by pGEX-3X
T3 chain: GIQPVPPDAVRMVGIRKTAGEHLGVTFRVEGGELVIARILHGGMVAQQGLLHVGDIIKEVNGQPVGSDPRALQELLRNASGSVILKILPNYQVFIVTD
The experiment is described as follows: A/G assays.

Experiment [4] deals with T4, GST-DVL1 PDZ domain fusion protein (human).
T4 construct: also called human dishevelled segment polarity protein homolog; not shown: glutathione S-transferase (GST) encoded by pGEX-3X
T4 chain: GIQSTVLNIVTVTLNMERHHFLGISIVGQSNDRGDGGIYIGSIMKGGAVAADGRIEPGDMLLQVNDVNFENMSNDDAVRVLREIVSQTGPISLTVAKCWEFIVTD
The experiment is described as follows: A/G assays.

Experiment [5] concerns the target T5, GST-MINT3 PDZ domain fusion protein (human).
T5 construct: also called human MINT3; not shown: glutathione S-transferase (GST) encoded by pGEX-3X
T5 chain: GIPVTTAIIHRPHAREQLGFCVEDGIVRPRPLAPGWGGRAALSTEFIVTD
The experiment is described as follows: A/G assays.

Experiment [6] deals with T6, GST-TAX2 PDZ domain fusion protein (human, UniProt O14908 129-216).
T6 construct: not shown: glutathione S-transferase (GST) encoded by pGEX-3X
T6 chain: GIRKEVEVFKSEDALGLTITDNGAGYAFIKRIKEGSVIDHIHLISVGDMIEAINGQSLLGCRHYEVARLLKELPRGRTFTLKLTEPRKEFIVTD
In words: A/G assays.

For experiment [7], the target named is T7, GST-SYN1a (alpha1-syntrophin) PDZ domain fusion protein (Homo sapiens (Human), UniProt Q13424 84-179).
T7 construct: also called SYN 1 α; not shown: glutathione S-transferase (GST) encoded by pGEX-3X
T7 sequence: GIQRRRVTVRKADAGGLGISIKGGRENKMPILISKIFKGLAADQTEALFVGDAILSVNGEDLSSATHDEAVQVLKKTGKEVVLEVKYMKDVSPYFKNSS
The experiment is described as follows: A/G assays.

Experiment [8] concerns the target T1, GST-NeDLG PDZ domains 1-2 fusion protein. The experiment is described as follows: A/G assays.
Experiment [9] concerns the target T8, GST-NOS1 PDZ domain fusion protein (human, UniProt P29475 11-101).
T8 construct: also called human neuronal nitric oxide synthase; not shown: glutathione S-transferase (GST) encoded by pGEX-3X
The experiment is described as follows: A/G assays.

The target of experiment [10] is T9, GST-KIAA0316 PDZ domain fusion protein (Homo sapiens (Human), UniProt Q14CM0 72-159).
T9 construct: also called K316; not shown: glutathione S-transferase (GST) encoded by pGEX-3X
In words: A/G assays.

Experiment [11] has as its target T1, GST-NeDLG PDZ domains 1-2 fusion protein. In words: G assay.
For experiment [12], the target named is T10, GST-PSD95 PDZ domains 1-3 fusion protein (human, UniProt P31016 58-395 (rat entry)).
T10 construct: not shown: glutathione S-transferase (GST) encoded by pGEX-3X
The experiment is described as follows: A assay.

T10 sequence (P31016 other isoform, or with tags, fused parts or gaps): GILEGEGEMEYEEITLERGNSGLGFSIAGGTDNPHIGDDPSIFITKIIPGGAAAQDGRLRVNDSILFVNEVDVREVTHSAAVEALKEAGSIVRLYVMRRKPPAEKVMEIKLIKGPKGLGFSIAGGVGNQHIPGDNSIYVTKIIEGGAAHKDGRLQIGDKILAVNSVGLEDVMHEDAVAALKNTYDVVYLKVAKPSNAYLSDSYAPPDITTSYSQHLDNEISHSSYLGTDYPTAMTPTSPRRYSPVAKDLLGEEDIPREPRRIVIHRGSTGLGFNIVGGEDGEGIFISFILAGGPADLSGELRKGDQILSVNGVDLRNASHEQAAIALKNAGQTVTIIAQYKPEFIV
T8 sequence (P29475 other isoform, or with tags, fused parts or gaps): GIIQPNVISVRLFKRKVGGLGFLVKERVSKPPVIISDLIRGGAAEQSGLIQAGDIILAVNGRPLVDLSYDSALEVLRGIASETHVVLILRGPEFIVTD
T9 sequence (Q14CM0 other isoform, or with tags, fused parts or gaps): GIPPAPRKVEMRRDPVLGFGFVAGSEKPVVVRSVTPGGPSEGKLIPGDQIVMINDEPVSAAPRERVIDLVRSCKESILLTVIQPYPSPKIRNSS

Turning to Biotin-VTSPNKHLGLVTPHKTELV [CD83 C-terminal peptide AA47L], the binding result in experiment [1] is recorded as “binds”; in experiment [2], “no binding”; in experiment [3], “no binding”; in experiment [4] it was “no binding”; in experiment [5], “no binding”; in experiment [6], “no binding”. Moreover, the binding result in [7] is recorded as “no binding”.
With Biotin-HKAEIHAQPSDKERLTSDA [CD49F (Aform, alpha6) C-terminal peptide AA12L], the binding result in [2], in experiment [3], in experiment [4], in [5], in experiment [6] and in [8] was “no binding” each time. In [7], the binding result is “no binding”.
In the case of Biotin-AWDDSARAAGGQGLHVTAL [LPAP C-terminal peptide AA30L], the binding result in experiment [2], in experiment [3], in [9], in [10], in experiment [4] and in experiment [5] was “no binding” in each case. Besides, the binding result in [6], in experiment [8] and in [7] was “no binding” throughout.
Regarding Biotin-SSSQSLESDGSYQKPSYIL [CD62E C-terminal peptide AA48L], the binding result in experiment [2], in [3], in experiment [4], in experiment [5], in experiment [6] and in [8] was “no binding” throughout. In [7], the binding result is “no binding”.
Take Biotin-KKGTYLTDETHREVKFTSL [CD46 (form 1) C-terminal peptide AA10L]: the binding result in experiment [11] is “binds”; in experiment [2], “no binding”; in experiment [3], “no binding”; in [4], “no binding”; in experiment [5], “no binding”; in experiment [6], “no binding”. In addition, the binding result in experiment [7] is reported as “no binding”.
As to Biotin-ENLAPVTTFGKTNGYIA [CD148 (DEP-1) C-terminal peptide AA19L (ending GYIA)], the binding result in experiment [2], in experiment [3], in experiment [4], in experiment [5], in [6] and in experiment [8] was “no binding” each time. In [7], the binding result was “no binding”.
As for Biotin-LERVSSTSPSTGEHELSAGF [CC CKR-1R C-terminal peptide AA41L], the binding result in experiment [2], in experiment [3], in experiment [4], in experiment [5], in experiment [6] and in experiment [8] was “no binding” each time. Also, the binding result in experiment [7] is reported as “no binding”.
Consider Biotin-SSKSKSSEESQTFFGLYKL (not fully specified) [FasLigand C-terminal peptide AA23L-M], for which the binding result in experiment [2], in experiment [3], in experiment [4], in experiment [5], in experiment [6] and in [8] was “no binding” each time. The binding result in experiment [7] is “no binding”.
For Biotin-YSATYSELEDPGEMSPPIDL (also called FceRlb; FcεRβI) [FceRIb C-terminal peptide AA25L], the binding result in experiment [2], in experiment [3], in experiment [4], in experiment [5], in [6] and in experiment [8] was “no binding” each time. For the same molecule, the binding result in [7] is listed as “no binding”.
Consider Biotin-ARHRVTSYTSSSVNVSSNL [CDW128A (IL8RA) C-terminal peptide AA29.1L], for which the binding result in experiment [1] is reported as “binds”; in [2] it was “no binding”; in [3], “no binding”; in experiment [4], “no binding”; in experiment [5] it was “no binding”; in experiment [6], “no binding”. In [7], the binding result is given as “no binding”.
Consider Biotin-GKGKSIGRAPEASLQDKEGA [CC CKR-2 C-terminal peptide AA42L], for which the binding result in experiment [2], in experiment [3], in experiment [4], in experiment [5], in experiment [6] and in experiment [8] was “no binding” in each case. Further, the binding result in experiment [7] is reported as “no binding”.
As for Biotin-SPQPDSTDNDDYDDISAA [CD6 C-terminal peptide AA6L], the binding result in experiment [2], in experiment [3], in experiment [4], in experiment [5], in experiment [6] and in experiment [8] was “no binding” in each case. In addition, the binding result in experiment [7] was “no binding”.
For the molecule Biotin-DTPSSSYTQSTMDHDLHDAL [CC CKR-4 C-terminal peptide AA44L], the binding result in experiment [2], in experiment [3], in [4], in [5], in experiment [6] and in experiment [8] was “no binding” throughout. Moreover, in [7], the binding result is recorded as “no binding”.
As to Biotin-ISKATPALPTVSISSSAEV [CLASP-1 C-terminal peptide AA1L], the binding result in experiment [12] was “binds”; in experiment [11], “binds”; in experiment [2] it was “no binding”; in experiment [3], “no binding”; in experiment [4], “no binding”; in [5], “no binding”. Besides, the binding result in experiment [6] and in [7] was “no binding” in each case.
For the molecule Biotin-DLGNMEENKKLEENNHKTEA [CD166 (CD6L) C-terminal peptide AA20L], the binding result in [2], in experiment [3], in [4], in experiment [5], in experiment [6] and in experiment [8] was “no binding” in each case. In addition, the binding result in experiment [7] is reported as “no binding”.
